Experimental data taken from publication PMC2756588.

T1: Sla1-2, P32790
T1 sequence (P32790 60-140, looked up): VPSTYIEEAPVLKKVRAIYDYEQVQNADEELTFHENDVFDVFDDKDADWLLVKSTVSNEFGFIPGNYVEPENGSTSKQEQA

T2: Abp1, P15891
T2 sequence (P15891 535-592, looked up): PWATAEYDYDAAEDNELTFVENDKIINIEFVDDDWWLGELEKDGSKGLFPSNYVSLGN

T3: Cyk3, Q07533
T3 sequence (Q07533 1-83, looked up): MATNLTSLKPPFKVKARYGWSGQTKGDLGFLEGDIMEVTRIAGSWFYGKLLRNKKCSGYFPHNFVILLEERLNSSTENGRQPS

T4: Nbp2, Q12163
T4 sequence (Q12163 103-180, looked up): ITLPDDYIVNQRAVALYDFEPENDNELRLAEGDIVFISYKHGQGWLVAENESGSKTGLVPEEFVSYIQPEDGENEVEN

T5: Lsb3, P43603
T5 sequence (P43603 385-451, looked up): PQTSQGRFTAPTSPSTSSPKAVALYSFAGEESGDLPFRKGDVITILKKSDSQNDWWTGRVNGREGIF

T6: Cdc25, P04821
T6 sequence (P04821 50-136, looked up): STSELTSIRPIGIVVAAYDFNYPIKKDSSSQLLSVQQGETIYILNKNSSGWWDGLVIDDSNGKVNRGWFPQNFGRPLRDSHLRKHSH

T7: Bud14, P27637
T7 sequence (P27637 247-328, looked up): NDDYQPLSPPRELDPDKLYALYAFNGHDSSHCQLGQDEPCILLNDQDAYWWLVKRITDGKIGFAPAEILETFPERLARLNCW

T8: Bbc1, P47068
T8 sequence (P47068 1-78, looked up): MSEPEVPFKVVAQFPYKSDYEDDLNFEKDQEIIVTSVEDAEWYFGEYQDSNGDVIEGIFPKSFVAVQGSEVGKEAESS

T9: Lsb4, P32793
T9 sequence (P32793 402-468, looked up): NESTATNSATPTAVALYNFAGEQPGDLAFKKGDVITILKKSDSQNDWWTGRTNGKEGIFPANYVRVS

T10: Pin3, Q06449
T10 sequence (Q06449 53-122, looked up): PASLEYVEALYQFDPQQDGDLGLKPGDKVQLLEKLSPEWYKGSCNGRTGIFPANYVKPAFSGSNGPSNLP

T11: Sla1-3, P32790
T11 sequence (P32790 344-424, looked up): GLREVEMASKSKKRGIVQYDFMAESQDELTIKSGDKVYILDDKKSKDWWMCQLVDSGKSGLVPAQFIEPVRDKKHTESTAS

T12: Bzz1-2, P38822
T12 sequence (P38822 568-633, looked up): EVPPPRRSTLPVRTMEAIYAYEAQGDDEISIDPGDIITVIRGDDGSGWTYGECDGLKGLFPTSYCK

T13: Boi2, P39969
T13 sequence (P39969 32-116, looked up): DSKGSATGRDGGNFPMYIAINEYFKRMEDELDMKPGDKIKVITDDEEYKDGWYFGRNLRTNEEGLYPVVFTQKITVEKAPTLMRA

T14: Bzz1-1, P38822
T14 sequence (P38822 478-572, looked up): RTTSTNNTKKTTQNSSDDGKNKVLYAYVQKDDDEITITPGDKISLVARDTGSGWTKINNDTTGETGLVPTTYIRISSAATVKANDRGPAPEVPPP

T15: Hse1, P38753
T15 sequence (P38753 208-285, looked up): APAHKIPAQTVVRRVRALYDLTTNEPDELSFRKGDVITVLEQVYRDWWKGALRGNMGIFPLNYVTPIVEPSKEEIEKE

T16: Fus1, P11710
T16 sequence (P11710 432-512, looked up): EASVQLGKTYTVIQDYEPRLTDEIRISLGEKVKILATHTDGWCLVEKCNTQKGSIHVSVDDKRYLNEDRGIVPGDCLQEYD

T17: Hof1, Q05080
T17 sequence (Q05080 590-669, looked up): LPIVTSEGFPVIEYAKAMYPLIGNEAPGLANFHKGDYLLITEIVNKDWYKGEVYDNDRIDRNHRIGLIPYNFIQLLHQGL

T18: Lsb1, P53281
T18 sequence (P53281 45-122, looked up): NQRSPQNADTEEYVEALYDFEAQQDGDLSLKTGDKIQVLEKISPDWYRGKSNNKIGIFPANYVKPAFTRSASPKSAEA

T19: Pex13, P80667
T19 sequence (P80667 295-386, looked up): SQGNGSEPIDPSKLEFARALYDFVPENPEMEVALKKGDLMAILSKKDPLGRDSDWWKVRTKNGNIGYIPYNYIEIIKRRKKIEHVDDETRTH

T20: Boi1, P38041
T20 sequence (P38041 1-86, looked up): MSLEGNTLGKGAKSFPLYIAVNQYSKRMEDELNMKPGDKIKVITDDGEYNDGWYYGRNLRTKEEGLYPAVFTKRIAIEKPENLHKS

T21: Myo5, Q04439
T21 sequence (Q04439 1072-1160, looked up): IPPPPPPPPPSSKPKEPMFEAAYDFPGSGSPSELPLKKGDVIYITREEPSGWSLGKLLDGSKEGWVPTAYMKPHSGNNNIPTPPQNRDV


What was measured:
Assay in all cases: SPOT array
[1] = molecular target: T1, Sla1-2, P32790; conditions: median of control spots 712
[2] = molecular target: T2, Abp1, P15891; conditions: median of control spots 935
[3] = molecular target: T3, Cyk3, Q07533; conditions: median of control spots 1451
[4] = molecular target: Myo3, P36006; conditions: median of control spots 468
[5] = molecular target: T4, Nbp2, Q12163; conditions: median of control spots 357
[6] = molecular target: T5, Lsb3, P43603; conditions: median of control spots 406
[7] = molecular target: T6, Cdc25, P04821; conditions: median of control spots 969
[8] = molecular target: T7, Bud14, P27637; conditions: median of control spots 956
[9] = molecular target: T8, Bbc1, P47068; conditions: median of control spots 796
[10] = molecular target: Bem1-2, P29366; conditions: median of control spots 4347
[11] = molecular target: T9, Lsb4, P32793; conditions: median of control spots 397
[12] = molecular target: T10, Pin3, Q06449; conditions: median of control spots 2171
[13] = molecular target: Rvs167, P39743; conditions: median of control spots 2707
[14] = molecular target: T11, Sla1-3, P32790; conditions: median of control spots 5475
[15] = molecular target: T12, Bzz1-2, P38822; conditions: median of control spots 4538
[16] = molecular target: T13, Boi2, P39969; conditions: median of control spots 1161
[17] = molecular target: Bem1-1, P29366; conditions: median of control spots 4282
[18] = molecular target: T14, Bzz1-1, P38822; conditions: median of control spots 4446
[19] = molecular target: Sho1, P40073; conditions: median of control spots 1148
[20] = molecular target: GST; conditions: median of control spots 978
[21] = molecular target: T15, Hse1, P38753; conditions: median of control spots 1727
[22] = molecular target: T16, Fus1, P11710; conditions: median of control spots 1200
[23] = molecular target: T17, Hof1, Q05080; conditions: median of control spots 4086
[24] = molecular target: T18, Lsb1, P53281; conditions: median of control spots 388
[25] = molecular target: T19, Pex13, P80667; conditions: median of control spots 1341
[26] = molecular target: T20, Boi1, P38041; conditions: median of control spots 1162
[27] = molecular target: T21, Myo5, Q04439; conditions: median of control spots 471

Chain of Bem1-1, P29366 (P29366 55-141): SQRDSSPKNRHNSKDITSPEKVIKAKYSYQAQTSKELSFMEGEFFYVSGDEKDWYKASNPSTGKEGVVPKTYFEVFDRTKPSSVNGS
Chain of Sho1, P40073 (P40073 287-367): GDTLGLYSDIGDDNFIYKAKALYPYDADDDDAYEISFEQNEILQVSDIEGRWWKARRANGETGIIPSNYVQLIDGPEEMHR
Chain of Rvs167, P39743 (P39743 419-482): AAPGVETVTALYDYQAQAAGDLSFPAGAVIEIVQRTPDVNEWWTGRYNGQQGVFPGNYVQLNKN
Chain of Bem1-2, P29366 (P29366 139-227): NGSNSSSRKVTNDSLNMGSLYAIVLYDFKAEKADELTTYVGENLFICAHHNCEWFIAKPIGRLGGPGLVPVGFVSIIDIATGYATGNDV

Row | Binder | SPOT intensity [1] | SPOT intensity [2] | SPOT intensity [3] | SPOT intensity [4] | SPOT intensity [5] | SPOT intensity [6] | SPOT intensity [7] | SPOT intensity [8] | SPOT intensity [9] | SPOT intensity [10] | SPOT intensity [11] | SPOT intensity [12] | SPOT intensity [13] | SPOT intensity [14] | SPOT intensity [15] | SPOT intensity [16] | SPOT intensity [17] | SPOT intensity [18] | SPOT intensity [19] | SPOT intensity [20] | further results
1 | NMLKKKPLKKPLKRF | 2 | 303 | 2 | 24 | 66 | 2 | 68 | 33 | 160 | 30 | 1 | 34 | 0 | 36 | 46 | 1 | 0 | 0 | 228 | 6 | SPOT intensity [21]: 187; SPOT intensity [22]: 36; SPOT intensity [23]: 14; SPOT intensity [24]: 0; SPOT intensity [25]: 18; SPOT intensity [26]: 11; SPOT intensity [27]: 1
2 | LKHGWKPLRPIKLIS | 0 | 75 | 0 | 0 | 2 | 0 | 14 | 8 | 14 | 7 | 4 | 3 | 0 | 16 | 1 | 0 | 0 | 0 | 55 | 0 | SPOT intensity [21]: 147; SPOT intensity [22]: 4; SPOT intensity [23]: 0; SPOT intensity [24]: 0; SPOT intensity [25]: 17; SPOT intensity [26]: 0; SPOT intensity [27]: 0
3 | RAPPPVPKKPSSRIA | 0 | 673 | 0 | 233 | 1050 | 415 | 2 | 3 | 116 | 592 | 180 | 37 | 45 | 155 | 590 | 0 | 0 | 435 | 509 | 1 | SPOT intensity [21]: 857; SPOT intensity [22]: 0; SPOT intensity [23]: 4; SPOT intensity [24]: 1600; SPOT intensity [25]: 395; SPOT intensity [26]: 0; SPOT intensity [27]: 15
4 | RPKRRAPPPVPKKPS | 2 | 555 | 2 | 491 | 887 | 298 | 12 | 6 | 487 | 497 | 129 | 9 | 99 | 2980 | 2580 | 1 | 0 | 480 | 487 | 6 | SPOT intensity [21]: 310; SPOT intensity [22]: 6; SPOT intensity [23]: 2; SPOT intensity [24]: 1450; SPOT intensity [25]: 42; SPOT intensity [26]: 3; SPOT intensity [27]: 232
